According to PMC6352652 (2018):

Tests used:
[1] = target: T1, FBG domain of rat tenascin-C (rat); experiment: SPR; 37°C
T1 chain: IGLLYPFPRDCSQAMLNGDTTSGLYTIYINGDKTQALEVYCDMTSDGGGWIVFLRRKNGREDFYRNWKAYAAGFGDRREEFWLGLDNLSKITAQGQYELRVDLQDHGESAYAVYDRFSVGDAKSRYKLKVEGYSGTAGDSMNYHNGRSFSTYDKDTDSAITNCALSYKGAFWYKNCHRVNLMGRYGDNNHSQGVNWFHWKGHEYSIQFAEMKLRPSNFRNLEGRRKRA

[2] = target: T2, fibrinogen-like globe (FBG) domain of human tenascin-C (human, UniProt P24821 1975-2201); experiment: SPR; 37°C
T2 chain: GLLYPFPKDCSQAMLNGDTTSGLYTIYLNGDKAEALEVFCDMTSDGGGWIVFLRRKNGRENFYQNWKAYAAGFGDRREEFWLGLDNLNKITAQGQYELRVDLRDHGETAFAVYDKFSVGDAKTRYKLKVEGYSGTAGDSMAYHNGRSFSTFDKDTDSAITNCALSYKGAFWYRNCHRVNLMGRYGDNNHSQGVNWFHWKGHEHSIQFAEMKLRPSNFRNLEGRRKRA

koff [1]: 0.00473 s⁻¹
koff [2]: 0.00083 s⁻¹
B1: monoclonal antibody C3 (antibody, V domains shown)
VH: QVQLVESGGGLVQPGRSLRLSCAASGFTFDDYAMHWVRQAPGKGLEWVSGISGSGGSTYYADSVKGRFTISRDNAKNSLYLQMNSLRAEDTALYYCAKSYQSDEDAFDIWGQGTMVTVSS
VL: DIQMTQSPASLPTPVGDRVTITCRASQYIQGFLNWYQQKPGKAPKLLIYDASNLETGVPSRFSGSGSGTDFTLTISSLQPEDFATYYCQQSYSTPQTFGQGTKVDIK
